Patent US10308692B2, “Variants of GAL2 transporter and their uses” (Johann Wolfgang Goethe-Universität Frankfurt, priority 2014, dated 2019)

System: AFY10X
Assay: epPCR-screening by replica-plating on xylose plus glucose media
Format: cell-based, Saccharomyces cerevisiae
Details: media with 1% xylose and increasing amounts of glucose (up to 5%)
Text: Mutants of GAL2 were created using error-prone PCR (epPCR) and then screened in AFY10X as described in Farwick et al. (2014). This method is faster than evolutionary engineering experiments and more often generates multiple mutations per ORF that might have a unique combined effect. On the downside, there might be more silent mutations among the increased number of mutations which might aggravate the identification of the relevant mutations in each clone. The GAL2 ORF was amplified in an epPCR with short amplification primers, applying various mutation rates, and the purified fragments then again amplified for recombinational cloning in a second PCR. Functional plasmids were in vivo assembled from PCR fragments and linearized p426H7 vector directly in the screening strain AFY10X. Transformants were plated out on selective SCE2 plates and subsequently screened. Colonies were tested for improved growth on media with 1% xylose and increasing amounts of glucose (up to 5%) by replica-plating. Seven clones were selected and grown in SCE2 ura^− leu^−+G418+2-DOG and samples of these cultures streaked out on plates for comparison and to obtain single colonies. Five of these seven clones were confirmed to grow on xylose glucose media. The plasmids of two clones were successfully isolated as described (yeast DNA was digested with EcoRI) and sequenced.

| Molecule | growth on medium (xylose + glucose) |
| --- | --- |
| Gal2_ep3.1: Gal2 epPCR clone with mutations M107K V239L N376Y M435I L558S (protein, UniProt P13181 1-574, looked up, variant M107K V239L N376Y M435I L558S) Galactose transporter: MAVEENNMPVVSQQPQAGEDVISSLSKDSHLSAQSQKYSNDELKAGESGSEGSQSVPIEIPKKPMSEYVTVSLLCLCVAFGGFMFGWDTGTISGFVVQTDFLRRFGKKHKDGTHYLSNVRTGLIVAIFNIGCAFGGIILSKGGDMYGRKKGLSIVVSVYIVGIIIQIASINKWYQYFIGRIISGLGVGGIAVLCPMLISEIAPKHLRGTLVSCYQLMITAGIFLGYCTNYGTKSYSNSLQWRVPLGLCFAWSLFMIGALTLVPESPRYLCEVNKVEDAKRSIAKSNKVSPEDPAVQAELDLIMAGIEAEKLAGNASWGELFSTKTKVFQRLLMGVFVQMFQQLTGNNYFFYYGTVIFKSVGLDDSFETSIVIGVVYFASTFFSLWTVENLGHRKCLLLGAATMMACMVIYASVGVTRLYPHGKSQPSSKGAGNCIIVFTCFYIFCYATTWAPVAWVITAESFPLRVKSKCMALASASNWVWGFLIAFFTPFITSAINFYYGYVFMGCLVAMFFYVFFFVPETKGLSLEEIQELWEEGVLPWKSEGWIPSSRRGNNYDSEDLQHDDKPWYKAMLE | 1 + 5 |
| Gal2_ep3.3: Gal2 epPCR clone with mutations T219S M255L R267C L299S N346I E528D (protein, UniProt P13181 1-574, looked up, variant T219S M255L R267C L299S N346I E528D) Galactose transporter: MAVEENNMPVVSQQPQAGEDVISSLSKDSHLSAQSQKYSNDELKAGESGSEGSQSVPIEIPKKPMSEYVTVSLLCLCVAFGGFMFGWDTGTISGFVVQTDFLRRFGMKHKDGTHYLSNVRTGLIVAIFNIGCAFGGIILSKGGDMYGRKKGLSIVVSVYIVGIIIQIASINKWYQYFIGRIISGLGVGGIAVLCPMLISEIAPKHLRGTLVSCYQLMISAGIFLGYCTNYGTKSYSNSVQWRVPLGLCFAWSLFLIGALTLVPESPCYLCEVNKVEDAKRSIAKSNKVSPEDPAVQAESDLIMAGIEAEKLAGNASWGELFSTKTKVFQRLLMGVFVQMFQQLTGINYFFYYGTVIFKSVGLDDSFETSIVIGVVNFASTFFSLWTVENLGHRKCLLLGAATMMACMVIYASVGVTRLYPHGKSQPSSKGAGNCMIVFTCFYIFCYATTWAPVAWVITAESFPLRVKSKCMALASASNWVWGFLIAFFTPFITSAINFYYGYVFMGCLVAMFFYVFFFVPETKGLSLDEIQELWEEGVLPWKSEGWIPSSRRGNNYDLEDLQHDDKPWYKAMLE | 1 + 3 |
